± gives the standard deviation of the averaged measurements.
Assays:
[1] = system: VchCAST RNA-guided transposition machinery (E. coli BL21(DE3) host, lacZ target); assay: relative integration efficiency (T-RL orientation) vs wild-type transposon end (log2 (normalized fold change)); transposon end mutated: right end (5 bp flank + 75 bp right end); higher = more efficient transposition
Summary of the method: (§1)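 Co-transformation of E. coli BL21(DE3) combined a pUC57 mini-transposon donor, holding barcoded pools of 1549 left-end or 1849 right-end variants, with a T7-driven plasmid encoding a CRISPR array, tniQ-cas8-cas7-cas6 and tnsA-tnsB-tnsC. After plating with 0.1 mM IPTG at 37°C for 18 h, input plasmids and genomic integration junctions were PCR-amplified and Illumina-sequenced across two biological output replicates, with four reference barcodes. Relative integration efficiency is the normalised, log-transformed output/input barcode fold change.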

[2] = system: VchCAST RNA-guided transposition machinery (E. coli BL21(DE3) host, lacZ target); assay: relative integration efficiency (T-LR orientation) vs wild-type transposon end (log2 (normalized fold change)); transposon end mutated: right end (5 bp flank + 75 bp right end); higher = more efficient transposition
Summary of the method: as §1

Sequence	relative integration efficiency (log2) [1]	relative integration efficiency (log2) [2]
ACATTTGTTGATACACCCATAAATTGATAATTACAACCATAAAATGATAATTATCACACCCATAAATTGATATTGCCTCTGATCATAGTCAGACCAACATTGCTACGACCCGTATTCGCACCGACAC	-0.475 ± 0.089	-0.673 ± 0.45
ACATTTGTTGATACACCCATAAATTGATAATTACAACCATAAAATGATAATTATCAGTGGGTATTTAACTATAACGCTCTGATCATAGTCAGACCAACATTGCTACGACCCGTATTCGCACCGACAC	-0.217 ± 0.012	2.58 ± 0.045
ACATTTGTTGATACACCCATAAATTGATAATTACAACCATAAAGTGATATTTATCACAACCATAAAATGATAATTACTCTGATCATAGTCAGACCAACATTGCTACGACCCGTATTCGCACCGACAC	-0.58 ± 0.22	-0.432 ± 0.17
ACATTTGTTGATACACCCATAAATTGATAATTACAACCATAAAGTGATATTTATCACAACCATAAAGTGATATTTACTCTGATCATAGTCAGACCAACATTGCTACGACCCGTATTCGCACCGACAC	-0.483 ± 0.29	-0.828 ± 0.015
ACATTTGTTGATACACCCATAAATTGATAATTACAACCATAAAGTGATATTTATCACAACCATAAGTTGATATTTTCTCTGATCATAGTCAGACCAACATTGCTACGACCCGTATTCGCACCGACAC	-0.418 ± 0.21	-0.743 ± 0.17
ACATTTGTTGATACACCCATAAATTGATAATTACAACCATAAAGTGATATTTATCACAACCATATATTGATATCTCCTCTGATCATAGTCAGACCAACATTGCTACGACCCGTATTCGCACCGACAC	-0.0337 ± 0.3	0.318 ± 0.42
ACATTTGTTGATACACCCATAAATTGATAATTACAACCATAAAGTGATATTTATCACACCCATAAATTGATAATTACTCTGATCATAGTCAGACCAACATTGCTACGACCCGTATTCGCACCGACAC	-0.494 ± 0.16	-0.96 ± 0.16
ACATTTGTTGATACACCCATAAATTGATAATTACAACCATAAAGTGATATTTATCACACCCATAAATTGATATTGCCTCTGATCATAGTCAGACCAACATTGCTACGACCCGTATTCGCACCGACAC	-0.477 ± 0.26	-0.466 ± 0.18
ACATTTGTTGATACACCCATAAATTGATAATTACAACCATAAAGTGATATTTATCAGTGGGTATTTAACTATAACGCTCTGATCATAGTCAGACCAACATTGCTACGACCCGTATTCGCACCGACAC	-0.744 ± 0.28	2.08 ± 0.1
ACATTTGTTGATACACCCATAAATTGATAATTACAACCATAAGTTGATATTTTTCACAACCATAAAATGATAATTACTCTGATCATAGTCAGACCAACATTGCTACGACCCGTATTCGCACCGACAC	-0.644 ± 0.31	-0.748 ± 0.17
ACATTTGTTGATACACCCATAAATTGATAATTACAACCATAAGTTGATATTTTTCACAACCATAAAGTGATATTTACTCTGATCATAGTCAGACCAACATTGCTACGACCCGTATTCGCACCGACAC	-0.613 ± 0.13	-0.228 ± 0.18
ACATTTGTTGATACACCCATAAATTGATAATTACAACCATAAGTTGATATTTTTCACAACCATAAGTTGATATTTTCTCTGATCATAGTCAGACCAACATTGCTACGACCCGTATTCGCACCGACAC	-0.543 ± 0.19	-0.275 ± 0.18
ACATTTGTTGATACACCCATAAATTGATAATTACAACCATAAGTTGATATTTTTCACAACCATATATTGATATCTCCTCTGATCATAGTCAGACCAACATTGCTACGACCCGTATTCGCACCGACAC	-0.626 ± 0.19	-0.393 ± 0.46
ACATTTGTTGATACACCCATAAATTGATAATTACAACCATAAGTTGATATTTTTCACACCCATAAATTGATAATTACTCTGATCATAGTCAGACCAACATTGCTACGACCCGTATTCGCACCGACAC	-0.622 ± 0.16	0.055 ± 0.036
ACATTTGTTGATACACCCATAAATTGATAATTACAACCATAAGTTGATATTTTTCACACCCATAAATTGATATTGCCTCTGATCATAGTCAGACCAACATTGCTACGACCCGTATTCGCACCGACAC	-0.708 ± 0.17	-0.56 ± 0.069
ACATTTGTTGATACACCCATAAATTGATAATTACAACCATAAGTTGATATTTTTCAGTGGGTATTTAACTATAACGCTCTGATCATAGTCAGACCAACATTGCTACGACCCGTATTCGCACCGACAC	-0.128 ± 0.33	2.821 ± 0.028
ACATTTGTTGATACACCCATAAATTGATAATTACAACCATATATTGATATCTCTCACAACCATAAAATGATAATTACTCTGATCATAGTCAGACCAACATTGCTACGACCCGTATTCGCACCGACAC	-0.747 ± 0.26	-0.825 ± 0.58
ACATTTGTTGATACACCCATAAATTGATAATTACAACCATATATTGATATCTCTCACAACCATAAAGTGATATTTACTCTGATCATAGTCAGACCAACATTGCTACGACCCGTATTCGCACCGACAC	-0.664 ± 0.34	0.11 ± 0.14

Sequence	relative integration efficiency (log2) [1]	relative integration efficiency (log2) [2]
ACATTTGTTGATACACCCATAAATTGATAATTACAACCATATATTGATATCTCTCACAACCATAAGTTGATATTTTCTCTGATCATAGTCAGACCAACATTGCTACGACCCGTATTCGCACCGACAC	0.516 ± 0.26	0.798 ± 0.25
ACATTTGTTGATACACCCATAAATTGATAATTACAACCATATATTGATATCTCTCACAACCATATATTGATATCTCCTCTGATCATAGTCAGACCAACATTGCTACGACCCGTATTCGCACCGACAC	-0.949 ± 0.26	0.0245 ± 0.11
ACATTTGTTGATACACCCATAAATTGATAATTACAACCATATATTGATATCTCTCACACCCATAAATTGATAATTACTCTGATCATAGTCAGACCAACATTGCTACGACCCGTATTCGCACCGACAC	-0.753 ± 0.22	0.157 ± 0.34
ACATTTGTTGATACACCCATAAATTGATAATTACAACCATATATTGATATCTCTCACACCCATAAATTGATATTGCCTCTGATCATAGTCAGACCAACATTGCTACGACCCGTATTCGCACCGACAC	-0.676 ± 0.13	-0.339 ± 0.29
ACATTTGTTGATACACCCATAAATTGATAATTACAACCATATATTGATATCTCTCAGTGGGTATTTAACTATAACGCTCTGATCATAGTCAGACCAACATTGCTACGACCCGTATTCGCACCGACAC	-1.17 ± 0.28	2.39 ± 0.18
ACATTTGTTGATACACCCATAAATTGATAATTACACCCATAAATTGATAATTATCACAACCATAAAATGATAATTACTCTGATCATAGTCAGACCAACATTGCTACGACCCGTATTCGCACCGACAC	-0.366 ± 0.2	-0.749 ± 0.39
ACATTTGTTGATACACCCATAAATTGATAATTACACCCATAAATTGATAATTATCACAACCATAAAGTGATATTTACTCTGATCATAGTCAGACCAACATTGCTACGACCCGTATTCGCACCGACAC	-0.445 ± 0.034	-0.01 ± 0.22
ACATTTGTTGATACACCCATAAATTGATAATTACACCCATAAATTGATAATTATCACAACCATAAGTTGATATTTTCTCTGATCATAGTCAGACCAACATTGCTACGACCCGTATTCGCACCGACAC	-0.361 ± 0.17	-0.206 ± 0.42
ACATTTGTTGATACACCCATAAATTGATAATTACACCCATAAATTGATAATTATCACAACCATATATTGATATCTCCTCTGATCATAGTCAGACCAACATTGCTACGACCCGTATTCGCACCGACAC	-0.596 ± 0.21	-0.271 ± 0.04
ACATTTGTTGATACACCCATAAATTGATAATTACACCCATAAATTGATAATTATCACACCCATAAATTGATAATTACTCTGATCATAGTCAGACCAACATTGCTACGACCCGTATTCGCACCGACAC	-0.6 ± 0.15	-0.257 ± 0.33
ACATTTGTTGATACACCCATAAATTGATAATTACACCCATAAATTGATAATTATCACACCCATAAATTGATATTGCCTCTGATCATAGTCAGACCAACATTGCTACGACCCGTATTCGCACCGACAC	-0.116 ± 0.036	-0.0387 ± 0.31
ACATTTGTTGATACACCCATAAATTGATAATTACACCCATAAATTGATAATTATCAGTGGGTATTTAACTATAACGCTCTGATCATAGTCAGACCAACATTGCTACGACCCGTATTCGCACCGACAC	-0.394 ± 0.0092	2.54 ± 0.063
ACATTTGTTGATACACCCATAAATTGATAATTACACCCATAAATTGATATTGCTCACAACCATAAAATGATAATTACTCTGATCATAGTCAGACCAACATTGCTACGACCCGTATTCGCACCGACAC	-0.918 ± 0.33	-0.204 ± 0.23
ACATTTGTTGATACACCCATAAATTGATAATTACACCCATAAATTGATATTGCTCACAACCATAAAGTGATATTTACTCTGATCATAGTCAGACCAACATTGCTACGACCCGTATTCGCACCGACAC	-0.813 ± 0.18	-0.114 ± 0.24
ACATTTGTTGATACACCCATAAATTGATAATTACACCCATAAATTGATATTGCTCACAACCATAAGTTGATATTTTCTCTGATCATAGTCAGACCAACATTGCTACGACCCGTATTCGCACCGACAC	-0.802 ± 0.24	0.079 ± 0.1
ACATTTGTTGATACACCCATAAATTGATAATTACACCCATAAATTGATATTGCTCACAACCATATATTGATATCTCCTCTGATCATAGTCAGACCAACATTGCTACGACCCGTATTCGCACCGACAC	-1.02 ± 0.26	0.128 ± 0.24
ACATTTGTTGATACACCCATAAATTGATAATTACACCCATAAATTGATATTGCTCACACCCATAAATTGATAATTACTCTGATCATAGTCAGACCAACATTGCTACGACCCGTATTCGCACCGACAC	-0.735 ± 0.34	0.319 ± 0.23
